According to PMC10212922, “A blocking monoclonal antibody reveals dimerization of intracellular domains of ALK2 associated with genetic disorders” (Nature Communications, 2023):
Where a chain is given by its changes, count along the chain named.

Columns and labels:
V5-tagged mouse ALK2 = V5-tagged mouse ALK2 (mouse, UniProt P37172); experiment: cell-based or functional assay
[1] = biological target: T1, His-tagged and Fc-tagged mouse ALK2 protein (Sino Biological) (Mus musculus, UniProt P37172); experiment: SPR; BIAcore T200; anti-histidine antibody immobilised on a CM5 chip, His- and Fc-tagged ALK2 (10 μg/ml) captured; antibody 0.195-50 nM injected, single-cycle kinetics, 300 s association, 1800 s dissociation, 30 μl/min; bivalent analyte model; the methods speak of avidity; conditions: both partners purified
T1 construct: activin receptor-like kinase 2 (ALK2), mouse, extracellular domain; also called 6x His-tagged mouse ALK2 ECD fused to human IgG Fc; source: bought: Sino Biological Inc

[2] = biological target: T2, His-tagged and Fc-tagged human ALK2 protein (Sino Biological) (Homo sapiens, UniProt Q04771); experiment: as above; conditions: both partners purified
T2 construct: activin receptor-like kinase 2 (ALK2), human; source: bought: Sino Biological Inc

[3] = biological target: T3, His-tagged and Fc-tagged human ALK2 protein (Sino Biological) (human, UniProt Q04771 21-123); experiment: SPR
T3 chain: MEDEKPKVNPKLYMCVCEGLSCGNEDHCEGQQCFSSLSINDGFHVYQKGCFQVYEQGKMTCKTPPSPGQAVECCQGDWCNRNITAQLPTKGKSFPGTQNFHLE

[4] = biological target: T4, His-tagged and Fc-tagged mouse ALK2 protein (Sino Biological) (mouse, UniProt P37172 21-123); experiment: SPR
T4 chain: T3 chain with M1V, P10Q

Sequence of V5-tagged mouse ALK2 (P37172 21-509): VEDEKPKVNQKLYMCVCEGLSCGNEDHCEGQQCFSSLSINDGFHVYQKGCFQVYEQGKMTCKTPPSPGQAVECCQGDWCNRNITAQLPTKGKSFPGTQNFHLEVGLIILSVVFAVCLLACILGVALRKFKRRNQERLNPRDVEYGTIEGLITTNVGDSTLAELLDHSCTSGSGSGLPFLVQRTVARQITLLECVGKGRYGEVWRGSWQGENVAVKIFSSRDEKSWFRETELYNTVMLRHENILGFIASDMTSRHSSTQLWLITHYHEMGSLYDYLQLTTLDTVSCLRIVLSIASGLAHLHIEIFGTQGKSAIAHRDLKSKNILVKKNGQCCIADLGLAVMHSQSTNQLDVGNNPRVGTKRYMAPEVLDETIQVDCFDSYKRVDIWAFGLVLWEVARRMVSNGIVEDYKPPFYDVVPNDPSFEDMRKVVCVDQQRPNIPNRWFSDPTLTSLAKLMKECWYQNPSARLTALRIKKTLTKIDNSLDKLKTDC

B1: Rm0443, rat anti-ALK2 monoclonal antibody clone #0443 (antibody, V domains shown)
VH: EVQLVESGGGLVQPGRSLKLSCLASGSTFSNYGMKWIRQAPGKGLEWVASISRSSTYIYYADTVKGRFTISRDNARNTLYLQMTSLRSEDTALYYCAAAISTPFYWYFDFWGPGTVVTVSS
VL: EIVLTQSPTTMAASPGEKVTLNCLASSSVSYMTWYQQKSGASPKLWIYGTSNLASGVPNRFSGSGSGTSYSLAISSMEAEDVATYYCLHLTSYPPYTFGAGTKLELK
notes: variable region as in the heavy chain of the chimeric Fab m2 (PDB 7YRU); variable region as in the light chain of the chimeric Fab m2 (PDB 7YRU); Whole rat IgG from the hybridoma; PDB 7YRU holds the rat variable regions on human IgG1 kappa constant regions; source: rat hybridoma, purified from serum-free conditioned medium (protein G column)
IC50 of Rm0443 against ALP activity induced by 300 ng/ml BMP7 in C2C12 cells (endogenous ALK2), day 3 (V5-tagged mouse ALK2): 0.017 µg/mL
IC50 of Rm0443 against BMP-specific luciferase reporter activity induced by 300 ng/ml BMP7 in C2C12 cells (endogenous ALK2), overnight (V5-tagged mouse ALK2): 0.216 µg/mL
Kd [1]: 5.1 nM
Kd [2]: 5.6 nM
koff [3]: 0.00576 s⁻¹
koff [4]: 0.00563 s⁻¹
